Three molecules from US20210292414A1 (H LUNDBECK A S, published 2021) can be followed below.

A word on the EC50: it is the concentration that produces a half-maximal response.

Holding throughout (test): BLI (Octet384RED)
For assay [1], the target named is T1, Sortilin SORTECDBAP_tetra (tetraodon).
T1 construct: Fully tetraodon Sortilin ECD with BAP tag; also called tetraodon; tetraodon Sortilin
T1 chain: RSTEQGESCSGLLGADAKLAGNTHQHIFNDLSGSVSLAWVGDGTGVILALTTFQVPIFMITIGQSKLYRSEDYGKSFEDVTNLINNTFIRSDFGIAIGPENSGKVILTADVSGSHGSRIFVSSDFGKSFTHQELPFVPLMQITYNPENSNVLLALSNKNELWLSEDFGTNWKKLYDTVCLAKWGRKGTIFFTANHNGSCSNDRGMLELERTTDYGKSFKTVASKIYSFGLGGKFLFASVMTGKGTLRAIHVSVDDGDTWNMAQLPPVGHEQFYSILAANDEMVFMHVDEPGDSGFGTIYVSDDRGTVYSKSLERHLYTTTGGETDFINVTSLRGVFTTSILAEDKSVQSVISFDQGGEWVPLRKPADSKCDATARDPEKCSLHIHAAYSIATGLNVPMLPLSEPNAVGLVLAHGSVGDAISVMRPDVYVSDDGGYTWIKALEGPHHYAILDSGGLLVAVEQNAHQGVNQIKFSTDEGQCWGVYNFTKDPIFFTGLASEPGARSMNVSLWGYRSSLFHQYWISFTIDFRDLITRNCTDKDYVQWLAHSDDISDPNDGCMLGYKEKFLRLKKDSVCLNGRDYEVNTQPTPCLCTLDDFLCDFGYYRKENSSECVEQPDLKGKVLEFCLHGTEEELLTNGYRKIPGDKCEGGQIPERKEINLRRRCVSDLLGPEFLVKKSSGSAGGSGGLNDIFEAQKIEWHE

Assay [2] concerns the target T2, Sortilin SORTECDBAP_hB12390 (human/tetraodon chimera).
T2 construct: Shuffle construct: chimeric human/tetraodon Sortilin ECD with BAP tag
T2 chain: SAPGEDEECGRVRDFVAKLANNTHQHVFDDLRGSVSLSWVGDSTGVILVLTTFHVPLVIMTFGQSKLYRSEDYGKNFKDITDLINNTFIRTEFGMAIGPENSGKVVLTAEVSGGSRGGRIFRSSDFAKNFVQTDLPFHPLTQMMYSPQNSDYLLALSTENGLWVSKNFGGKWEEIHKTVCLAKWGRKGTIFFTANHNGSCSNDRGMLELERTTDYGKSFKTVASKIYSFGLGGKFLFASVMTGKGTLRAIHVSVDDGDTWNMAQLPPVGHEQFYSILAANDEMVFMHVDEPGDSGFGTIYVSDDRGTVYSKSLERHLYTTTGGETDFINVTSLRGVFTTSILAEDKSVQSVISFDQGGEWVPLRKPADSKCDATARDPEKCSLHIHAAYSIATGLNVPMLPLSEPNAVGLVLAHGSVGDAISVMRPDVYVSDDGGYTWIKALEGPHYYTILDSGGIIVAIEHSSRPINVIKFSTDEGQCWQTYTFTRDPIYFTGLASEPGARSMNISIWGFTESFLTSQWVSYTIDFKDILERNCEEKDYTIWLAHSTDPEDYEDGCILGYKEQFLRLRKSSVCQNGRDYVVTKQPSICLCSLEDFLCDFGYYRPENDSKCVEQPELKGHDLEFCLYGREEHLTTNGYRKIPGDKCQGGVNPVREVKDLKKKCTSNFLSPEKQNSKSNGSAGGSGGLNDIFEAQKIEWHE

The target of assay [3] is T3, Sortilin SORTECDBAP_hB01-05 (human/tetraodon chimera).
T3 construct: Shuffle construct: chimeric human/tetraodon Sortilin ECD with BAP tag
T3 chain: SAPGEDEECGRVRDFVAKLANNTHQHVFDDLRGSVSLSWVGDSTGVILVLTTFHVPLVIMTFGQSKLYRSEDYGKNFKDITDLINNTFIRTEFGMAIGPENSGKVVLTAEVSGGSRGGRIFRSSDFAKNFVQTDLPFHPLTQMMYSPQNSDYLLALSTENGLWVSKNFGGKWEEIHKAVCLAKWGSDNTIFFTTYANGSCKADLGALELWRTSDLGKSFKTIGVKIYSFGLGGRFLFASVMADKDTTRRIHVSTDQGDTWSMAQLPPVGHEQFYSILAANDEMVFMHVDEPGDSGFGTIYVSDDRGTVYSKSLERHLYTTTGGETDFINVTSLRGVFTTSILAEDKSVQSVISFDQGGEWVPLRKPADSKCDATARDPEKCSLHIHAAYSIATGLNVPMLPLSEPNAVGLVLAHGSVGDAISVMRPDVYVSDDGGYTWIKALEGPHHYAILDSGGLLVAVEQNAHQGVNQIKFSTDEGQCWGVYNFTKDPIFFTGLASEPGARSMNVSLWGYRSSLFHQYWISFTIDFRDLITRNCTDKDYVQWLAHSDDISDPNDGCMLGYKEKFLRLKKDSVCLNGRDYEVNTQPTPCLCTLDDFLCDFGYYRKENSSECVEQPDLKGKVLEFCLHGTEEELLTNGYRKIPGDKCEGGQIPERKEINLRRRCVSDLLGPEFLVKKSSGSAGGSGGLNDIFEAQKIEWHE

Assay [4] deals with T4, hBack.
T4 chimeric human/tetraodon Sortilin extracellular region, BAP tag: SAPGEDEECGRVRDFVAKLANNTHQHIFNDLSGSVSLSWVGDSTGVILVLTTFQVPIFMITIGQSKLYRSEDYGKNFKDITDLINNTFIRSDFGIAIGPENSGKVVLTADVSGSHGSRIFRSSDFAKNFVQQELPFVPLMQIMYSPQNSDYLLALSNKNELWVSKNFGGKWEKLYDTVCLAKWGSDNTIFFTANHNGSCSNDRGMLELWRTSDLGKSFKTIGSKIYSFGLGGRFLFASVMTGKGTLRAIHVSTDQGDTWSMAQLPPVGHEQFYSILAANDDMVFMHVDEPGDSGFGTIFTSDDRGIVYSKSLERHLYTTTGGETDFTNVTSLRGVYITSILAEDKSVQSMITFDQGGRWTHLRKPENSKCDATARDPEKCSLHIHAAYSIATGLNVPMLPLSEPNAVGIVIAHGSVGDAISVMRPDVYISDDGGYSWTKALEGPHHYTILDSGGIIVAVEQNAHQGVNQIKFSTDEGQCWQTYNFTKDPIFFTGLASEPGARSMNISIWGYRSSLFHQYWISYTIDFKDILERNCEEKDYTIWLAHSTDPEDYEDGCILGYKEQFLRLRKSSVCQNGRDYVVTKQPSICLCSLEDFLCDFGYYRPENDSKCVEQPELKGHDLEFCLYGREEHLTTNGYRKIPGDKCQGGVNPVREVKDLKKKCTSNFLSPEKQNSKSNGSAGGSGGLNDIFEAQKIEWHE

For assay [5], the target named is T1, Sortilin SORTECDBAP_tetra.
Assay [6] addresses T2, Sortilin SORTECDBAP_hB12390.
Assay [7] has as its target T3, Sortilin SORTECDBAP_hB01-05.
Assay [8] deals with T4, hBack.

Where two headings read alike, the source gives them in different places.

B1: Antibody 6003-423 (antibody, human IgG1, V domains shown)
VH: EVQLLESGGGLVQPGGSLRLSCEASGFTFRSYVMSWVRQAPGKGLEWVSTISGGGGNTNYTDSVKGRFTISRDNSKNTLYLQMNSLRAEDTAVYYCAKNWGSGFDYWGQGTLVTVSS
VL: EIVLTQSPATLSLSPGERATLSCRASQSVSSYLAWYQQKPGQAPRLLIYDASNRATGIPARFSGSGSGTDFTLTISSLEPEDFAVYYCQQRSNWLIFTFGPGTKVDIK
Regarding B1, the binding result in assay [1] and in assay [3] was “no binding” throughout. Also, the EC50 in assay [2] worked out at 3.55 ng/mL; in the assay with hBack [4], 4 ng/mL.

B2: Antibody 6003-936 (antibody, human IgG1, V domains shown)
VH: EVQLVQSGAEVKKPGESLKISCKGSGYIFTSFWIGWVRQMPGKGLEWMGIIYPGDSDTRYSPSFQGQVTISADKSISTAYLQWSSLKASDTAMYYCARHSRGSFWYGAFQHWGQGTLVTVSS
VL: EIVLTQSPDFQSVTPKEKVTITCRASQSIGSSLHWYQQKPDQSPKLLIKYASQSFSGVPSRFSGSGSGTDFTLTINSLEAEDAAAYYCHQSSSLPHTFGPGTKVDIK
As to B2, the binding result in assay [5] and in assay [7] was “no binding” each time. Also, the values for the EC50 (in assay [6]; with hBack [8]) were 11.4 ng/mL and 2.62 ng/mL, respectively.

B3: Antibody 6003-471 (antibody, V domains shown)
VH: QVQLVQSGAEVKKPGSSVKVSCKASGGTFSNYAISWVRQAPGQGLEWMGRIIPIFGIANYAQKFQGRVTITADKSTSTAYMELSSLRSEDTAVYYCARDRRGFSGYEVFDYWGQGTLVTVSS
VL: DIQMTQSPSSLSASVGDRVTITCRASQGISSWLAWYQQKPEKAPKSLIYATSSLQSGVPSRFSGSGSGTDFTLTISSLQPEDFATYYCQQYNSYPITFGQGTRLEIK
In the case of B3, the binding result in assay [1] and in assay [3] was “no binding” each time. The 50% effective concentration (EC50) in assay [2] is 3.16 ng/mL; in the assay with hBack [4], 2.54 ng/mL.
